Values quoted from earlier work in article PMC3461832.

Assays:
[1] = target: fibrinogen Bβ chain peptide β1-25 1-25 (Homo sapiens) (UniProt P02675)
[2] = target: fibrinogen Bβ chain 6-20 (Homo sapiens) (UniProt P02675)

UniProt P02675, sequence (P02675 1-25): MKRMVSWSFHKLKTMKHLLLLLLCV

## SdrG (from UniProt Q9KI13)
[1]
  Kd: 140 nM
[2]
  Kd: 90 nM
